Data from PMC2887959.
Read-outs that look alike come from different tables or passages of the source.

Assays:
Test in all cases: fluorescence anisotropy
[1] = molecular target: T1, IN catalytic core CC (IN50-213) (HIV-1, UniProt P04585 1197-1360)
IN deltaC (IN1-213) [2] = molecular target: T2, IN deltaC (IN1-213) (HIV-1, UniProt P04585 1148-1360)
[3] = molecular target: T1, IN catalytic core CC (IN50-213); remark: listed apart in the source
IN deltaC (IN1-213) [4] = molecular target: T2, IN deltaC (IN1-213); remark: listed apart in the source

B1: U5A/U5B (dsDNA)
DNA 1: GTGTGGAAAATCTCTAGCAGT
DNA 2: ACTGCTAGAGATTTTCCACAC
[1]
  Kd: 53 ± 13 nM
IN deltaC (IN1-213) [2]
  Kd: 64 ± 8 nM
[3]
  Kd: 61 ± 10 nM
IN deltaC (IN1-213) [4]
  Kd: 60 ± 4 nM
